Results from patent publication US20220242973A1 (Molecular Partners, published 2022).

T1: Recombinant human FAP (fibroblast activation protein) (human, UniProt Q12884 26-760)
T1 construct: Bought soluble recombinant protein; Chemically biotinylated for the HTRF screen; also called hFAP; biotinylated human FAP
T1 sequence (looked up): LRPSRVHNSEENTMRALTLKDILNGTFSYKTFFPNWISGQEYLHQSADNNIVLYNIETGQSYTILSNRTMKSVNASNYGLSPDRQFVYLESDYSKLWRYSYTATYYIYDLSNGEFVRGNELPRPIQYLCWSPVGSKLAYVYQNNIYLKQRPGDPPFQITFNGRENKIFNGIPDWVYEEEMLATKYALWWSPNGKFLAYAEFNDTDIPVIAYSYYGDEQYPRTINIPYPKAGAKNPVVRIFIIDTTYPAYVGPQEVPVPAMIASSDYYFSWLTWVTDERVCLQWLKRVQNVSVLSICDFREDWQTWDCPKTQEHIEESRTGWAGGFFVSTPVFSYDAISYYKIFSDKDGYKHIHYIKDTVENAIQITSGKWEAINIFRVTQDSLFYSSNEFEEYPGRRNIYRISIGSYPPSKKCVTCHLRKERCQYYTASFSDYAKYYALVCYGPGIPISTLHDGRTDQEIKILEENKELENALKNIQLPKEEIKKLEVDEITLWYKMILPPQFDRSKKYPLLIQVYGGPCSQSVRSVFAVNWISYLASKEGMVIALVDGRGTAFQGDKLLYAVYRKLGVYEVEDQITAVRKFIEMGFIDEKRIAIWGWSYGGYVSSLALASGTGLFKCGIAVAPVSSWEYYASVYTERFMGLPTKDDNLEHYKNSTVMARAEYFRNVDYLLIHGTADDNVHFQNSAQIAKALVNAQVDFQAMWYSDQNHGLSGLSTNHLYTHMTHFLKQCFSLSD

T2: Human FAP expressed on the cell surface (WI38, CHO-FAP1.9, U87MG cells) (human, UniProt Q12884 1-760)
T2 construct: whole, on cells; Endogenous on WI38 and U87MG cells; from a human FAP cDNA (OriGene) in CHO-FAP1.9 cells; also called hFAP; FAP+ cells
T2 sequence (looked up): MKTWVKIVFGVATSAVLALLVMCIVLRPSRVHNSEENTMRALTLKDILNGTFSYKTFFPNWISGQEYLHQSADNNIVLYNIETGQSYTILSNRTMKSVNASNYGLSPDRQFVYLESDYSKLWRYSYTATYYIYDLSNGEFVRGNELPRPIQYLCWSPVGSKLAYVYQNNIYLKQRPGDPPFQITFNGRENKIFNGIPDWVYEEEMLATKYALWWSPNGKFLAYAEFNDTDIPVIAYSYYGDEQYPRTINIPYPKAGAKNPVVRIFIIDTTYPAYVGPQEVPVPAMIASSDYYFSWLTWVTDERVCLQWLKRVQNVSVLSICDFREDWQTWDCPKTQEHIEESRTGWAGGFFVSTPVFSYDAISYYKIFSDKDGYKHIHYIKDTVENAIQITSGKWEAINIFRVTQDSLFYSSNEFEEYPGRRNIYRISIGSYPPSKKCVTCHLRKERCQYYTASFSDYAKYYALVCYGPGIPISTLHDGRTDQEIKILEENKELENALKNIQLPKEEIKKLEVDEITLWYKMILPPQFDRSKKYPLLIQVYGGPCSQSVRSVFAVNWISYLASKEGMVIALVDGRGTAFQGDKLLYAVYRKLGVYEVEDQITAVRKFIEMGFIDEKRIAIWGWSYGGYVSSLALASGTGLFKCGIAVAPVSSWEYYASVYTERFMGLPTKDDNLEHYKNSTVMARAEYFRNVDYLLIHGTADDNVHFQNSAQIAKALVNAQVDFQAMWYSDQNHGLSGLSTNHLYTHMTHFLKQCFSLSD

B1: DARPin® protein #7 (designed binder)
chain: MRGSHHHHHHGSYPYDVPDYAGSDLGKKLLEAARAGQDDEVRELLKAGADVNAKDEWGKTPLHLAAALGHLEIVEVLLKAGADVNAKDAWGATPLHVAAFAGHLEIVEVLLKAGADVNAKDTIGFTPLHLAAHSGHLEIVEVLLKAGADVNAQDKSGKTPADLAADAGHEDIVEVLQKLN
B2: DARPin® protein #27 (designed binder)
chain: MRGSHHHHHHGSYPYDVPDYAGSDLGKKLLEAARAGQDDEVRELLKAGADVNAKDEWDKTPLHYAAALGHLEIVEVLLKAGADVNAKDVWGATPLHIAAFAGHLEIVEVLLKAGADVNAKDTLGYTPLHLAATRGHLEIVEALLKAGADVNAQDKSGKTPADLAADVGHEDIAEVLQKLN
B3: DARPin® protein #22 (designed binder)
chain: MRGSHHHHHHGSYPYDVPDYAGSDLGDKLLTAANYGQDDEVRILLAAGADVNAKDRFGHTPLHVAAHFGHLEIVEVLLKAGADVNAKDSLGHTPLHLAAEAGHLEIVEVLLKAGADVNAQDFHGITPADLAAHQGHEDIAEVLQKLN
B4: DARPin® protein #23 (designed binder)
chain: MRGSHHHHHHGSYPYDVPDYAGSDLGLKLLSAAQVGQDDEVRILLAAGADVNVKDQFGHTPLHVATHFGHLEIVEVLLKAGADVNAKDALGHTPLHLAAEAGHLEIVEVLLKAGADVNAQDAHGRTPADLAAQLGHEDIAEVLQKLN
B5: DARPin® protein #2 (designed binder)
chain: MRGSHHHHHHGSYPYDVPDYAGSDLGKKLLEAARAGQDDEVRILLAAGADINAKDKYGVTPLHLAAWAGHLEIVEVLLKAGADVNAKDQSGFTPLHLAAHRGHLEIVEVLLKAGADVNAKDYRGFTPLHLAAEDGHLEIVEVLLKAGADVNAQDKSGKTPADLAADAGHEDIAEVLQKLN
B6: DARPin® protein #24 (designed binder)
chain: MRGSHHHHHHGSYPYDVPDYAGSDLGEKLLEAARRGQDDEVRELLKAGADVNAKDRYGITPLHLAAFLGHLEIVEVLLKDGADVNAKDEWGATPLHVAAYKGHLEIVEVLLKAGADVNAQDLYGKTPADLAAEQGHEDIEEVLQKLN
B7: DARPin® protein #14 (designed binder)
chain: MRGSHHHHHHGSYPYDVPDYAGSDLGKKLLEAARAGQDDEVRILLAAGADVNAKDYSGRTPLHLAALTGHLEIVKVLLKHGADVNASDDYGITPLHLDAFIGHLEIVEVLLKNGADVNAMDYQGRTPLHPAAYTGHLEIVEVLLKYGADVNAQDKFGKTAFDISIDNGNEDLAEILQKLN
B8: DARPin® protein #15 (designed binder)
chain: MRGSHHHHHHGSYPYDVPDYAGSDLGKKLLEAARAGQDDEVRILMANGADVNAFDAIGRTPLHLAALYGHLEIVEVLLKHVADVNATDEYGITPLHLAAFMGHLEIVEVLLKYGADVNAIDFDGRTPLHPAAYRGHLEIVEVLLKHGADVNAQDKFGKTAFDISIDNGNEDLAEILQKLN
B9: DARPin® protein #21 (designed binder)
chain: MRGSHHHHHHGSYPYDVPDYAGSDLGQKLLNAAFIGQDDEVRILLAAGAGVNAKDRHGHTPLHVTAHHGHLEIVEVLLKAGTDVNAKDNQGNTPLHVAAEADHLEIVEVLLKAGADVNAQDAHGRTPADLAAQLGHEDIAEVLQKLN

Each binder was assayed against T1, Recombinant human FAP (fibroblast …) (assay: SPR (ProteOn), human FAP immobilized on GLC chip).
Experimental: Briefly, human FAP was diluted in 10 mM Na-acetate pH 5.3 buffer and covalently immobilized on a GLC chip (BioRad) to a level of around 2000 resonance units (RU). The interaction of ankyrin repeat protein and hFAP was then measured by injecting 200 μl running buffer (PBS, pH 7.4 containing 0.005% Tween 20®) containing serial dilutions of ankyrin repeat proteins covering a concentration range between 30 nM and 0.5 nM (on-rate measurement), followed by a running buffer flow for at least 25 minutes at a constant flow rate of 100 μl/min (off-rate measurement). The regeneration was performed using 15 μl of 10 mM Glycine pH 2 followed by 15 μl of 124 mM H₃PO₄. The signals (i.e. resonance unit (RU) values) of the interspots and a reference injection (i.e. injection of running buffer only) were subtracted from the RU traces obtained after injection of ankyrin repeat protein (double-referencing). Based on the SPR traces obtained from the on-rate and off-rate measurements, the on- and off-rate of the corresponding ankyrin repeat protein—FAP interaction was determined.
Dissociation constants (KD) were calculated from the estimated on- and off-rates using standard procedures known to the person skilled in the art. […] Table 1 provides the KD values of some selected ankyrin repeat proteins as examples.

Row | Kd | Binder
1 | 0.744 nM | B1
2 | 0.441 nM | B2
3 | 3.4 nM | B3
4 | 2.78 nM | B4
5 | 8.24 nM | B5
6 | 1.47 nM | B6
7 | 0.007 nM | B7
8 | < 0.01 nM | B8
9 | 0.885 nM | B9

These binders were tested against T2, Human FAP expressed on the cell surface … (assay: FACS on FAP-expressing WI38 cells, Penta-His AF647 detection).
Experimental: Using multi-well plates, 20,000 WI38 cells were added per well in 50 μl of PBS. 50 μl of appropriate dilutions (2× dilution steps) of ankyrin repeat protein was then added to the cells and incubated for 30 minutes on ice. After the ankyrin repeat protein-binding reaction, cells were washed twice with PBS. Direct immunofluorescent detection of the His-tagged ankyrin repeat proteins using Penta-His AF647 conjugate (QIAgen) and determination of live cells using LIVE/DEAD™ Fixable Green Dead Cell Stain Kit (ThermoFisher) were then performed together in one step. The Penta-His AF647 conjugate and the LIVE/DEAD™ Fixable Green dye were applied to the cells together in 1/200 (Penta-His) and 1/1000 (LID Fixable) final dilutions and incubated for 20-30 minutes on ice. After washing the cells with PBS, cells were re-suspended in 1× CellFix™ buffer (BD Biosciences) (10× stock was diluted 1/10 in water). The samples were incubated in CellFix™ buffer for 15-20 minutes at RT, then spun down at 400 g for 5 min. Supernatant was discarded and cells were re-suspended in 200 μl PBS and stored at 4° C. until acquisition and FACS analysis. Acquisition and FACS analysis, including the determination of median fluorescence intensity (MFI), were done within 5 days after staining using an AttuneNxT instrument. Binding curves were fitted by non-linear regression curve fitting using GraphPad Prism software (v 7.0.4).
EC₅₀ values were determined using standard procedures known to the person skilled in the art. […] Table 2 provides the EC₅₀ values of selected ankyrin repeat proteins as examples.

Row | EC50 | Binder
10 | 1.45 nM | B1
11 | 0.664 nM | B2
12 | 1.22 nM | B3
13 | 1.82 nM | B4
14 | 5.26 nM | B5
15 | 4.49 nM | B6
16 | 0.246 nM | B7
17 | 0.33 nM | B8
18 | 2.19 nM | B9

These binders were tested against T1, Recombinant human FAP (fibroblast …) (assay: cell-based or functional assay).

Row | FAP activity (%) | Binder
19 | 123% | B1
20 | 110% | B2
21 | 100% | B3
22 | 100% | B4
23 | 117% | B5
24 | 102% | B6
25 | 86% | B7
26 | 93% | B8
27 | 108% | B9
